Assay results as given in patent US20210388087A1 (Chugai, published 2021).
Numbering of substitutions follows the chain as printed. Names may count otherwise. Each block holds one binder with its values, some of them ahead of it.

Biological target: T1, Human CD3eg linker (human)
T1 construct: Single-chain construct; also called recombinant human CD3
T1 chain: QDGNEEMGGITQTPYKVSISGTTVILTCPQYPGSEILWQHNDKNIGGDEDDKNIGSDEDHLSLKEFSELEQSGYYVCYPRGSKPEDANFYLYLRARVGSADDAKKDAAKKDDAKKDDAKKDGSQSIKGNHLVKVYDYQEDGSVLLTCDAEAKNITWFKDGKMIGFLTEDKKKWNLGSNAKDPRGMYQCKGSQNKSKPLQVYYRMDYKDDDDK
Assay: SPR; fold vs parent H183/L072

B1: H183/L072 VL F55W (antibody, name in Kabat numbering, V domains shown)
VH: QVQLVESGGGLVQPGRSLRLSCAASGFTFSNAWMHWVRQAPGKGLEWVAQIKDKGNAYAAYYAPSVKGRFTISRDDSKNSIYLQMNSLKTEDTAVYYCHYVHYASASTVLPAFGVDAWGQGTTVTVSS
VL: DIVMTQSPLSLPVTPGEPASISCQASQELVHMNRNTYLHWYQQKPGQAPRLLIYKVSNRWPGVPDRFSGSGSGTDFTLKISRVEAEDVGVYYCAQGTSVPFTFGQGTKLEIK
fold change of affinity: 0.2 fold

B3: H183/L072 VL H34D (antibody, name in Kabat numbering, V domains shown)
VH: B1 VH
VL: B1 VL with H39D, W60F
fold change of affinity: 0 fold

B7: H183/L072 VL F96D (antibody, name in Kabat numbering, V domains shown)
VH: B1 VH
VL: B1 VL with W60F, F101D
fold change of affinity: 0 fold

B8: H183/L072 VL H27dS (antibody, name in Kabat numbering, V domains shown)
VH: B1 VH
VL: B1 VL with H31S, W60F
fold change of affinity: 0 fold

B9: H183/L072 VL H27dF (antibody, name in Kabat numbering, V domains shown)
VH: B1 VH
VL: B1 VL with H31F, W60F
fold change of affinity: 0.2 fold

B11: H183/L072 VL H34A (antibody, name in Kabat numbering, V domains shown)
VH: B1 VH
VL: B1 VL with H39A, W60F
fold change of affinity: 0.6 fold

B12: H183/L072 VL H27dQ (antibody, name in Kabat numbering, V domains shown)
VH: B1 VH
VL: B1 VL with H31Q, W60F
fold change of affinity: 0 fold

B13: H183/L072 VL G91D (antibody, name in Kabat numbering, V domains shown)
VH: B1 VH
VL: B1 VL with W60F, G96D
fold change of affinity: 0 fold

B14: H183/L072 VL F96E (antibody, name in Kabat numbering, V domains shown)
VH: B1 VH
VL: B1 VL with W60F, F101E
fold change of affinity: 0 fold

B15: H183/L072 VL G91T (antibody, name in Kabat numbering, V domains shown)
VH: B1 VH
VL: B1 VL with W60F, G96T
fold change of affinity: 0 fold

B16: H183/L072 VL H27dK (antibody, name in Kabat numbering, V domains shown)
VH: B1 VH
VL: B1 VL with H31K, W60F
fold change of affinity: 0 fold

B17: H183/L072 VL F96T (antibody, name in Kabat numbering, V domains shown)
VH: B1 VH
VL: B1 VL with W60F, F101T
fold change of affinity: 0 fold

B19: H183/L072 VL H27dT (antibody, name in Kabat numbering, V domains shown)
VH: B1 VH
VL: B1 VL with H31T, W60F
fold change of affinity: 0 fold

B22: H183/L072 VL G91E (antibody, name in Kabat numbering, V domains shown)
VH: B1 VH
VL: B1 VL with W60F, G96E
fold change of affinity: 0 fold

B23: H183/L072 VL H27dG (antibody, name in Kabat numbering, V domains shown)
VH: B1 VH
VL: B1 VL with H31G, W60F
fold change of affinity: 0 fold

B24: H183/L072 VL G91Q (antibody, name in Kabat numbering, V domains shown)
VH: B1 VH
VL: B1 VL with W60F, G96Q
fold change of affinity: 0 fold

B27: H183/L072 VL H27dN (antibody, name in Kabat numbering, V domains shown)
VH: B1 VH
VL: B1 VL with H31N, W60F
fold change of affinity: 0 fold

B28: H183/L072 VL H27dE (antibody, name in Kabat numbering, V domains shown)
VH: B1 VH
VL: B1 VL with H31E, W60F
fold change of affinity: 0 fold

B29: H183/L072 VL F96H (antibody, name in Kabat numbering, V domains shown)
VH: B1 VH
VL: B1 VL with W60F, F101H
fold change of affinity: 0 fold

B32: H183/L072 VL F96Q (antibody, name in Kabat numbering, V domains shown)
VH: B1 VH
VL: B1 VL with W60F, F101Q
fold change of affinity: 0 fold

B33: H183/L072 VL G91S (antibody, name in Kabat numbering, V domains shown)
VH: B1 VH
VL: B1 VL with W60F, G96S
fold change of affinity: 0 fold

B35: H183/L072 VL H27dD (antibody, name in Kabat numbering, V domains shown)
VH: B1 VH
VL: B1 VL with H31D, W60F
fold change of affinity: 0 fold

B36: H183/L072 VL H34E (antibody, name in Kabat numbering, V domains shown)
VH: B1 VH
VL: B1 VL with H39E, W60F
fold change of affinity: 0 fold

B40: H183/L072 VL G91H (antibody, name in Kabat numbering, V domains shown)
VH: B1 VH
VL: B1 VL with W60F, G96H
fold change of affinity: 0 fold

B41: H183/L072 VL G91K (antibody, name in Kabat numbering, V domains shown)
VH: B1 VH
VL: B1 VL with W60F, G96K
fold change of affinity: 0 fold

B42: H183/L072 VL F96S (antibody, name in Kabat numbering, V domains shown)
VH: B1 VH
VL: B1 VL with W60F, F101S
fold change of affinity: 0 fold

B44: H183/L072 VL F96K (antibody, name in Kabat numbering, V domains shown)
VH: B1 VH
VL: B1 VL with W60F, F101K
fold change of affinity: 0 fold

B45: H183/L072 VL H34G (antibody, name in Kabat numbering, V domains shown)
VH: B1 VH
VL: B1 VL with H39G, W60F
fold change of affinity: 0.3 fold

More lines, now with the values ahead:

fold change of affinity: 0 fold
B2: H183/L072 VL K50R (antibody, name in Kabat numbering, V domains shown)
VH: B1 VH
VL: B1 VL with K55R, W60F

fold change of affinity: 0 fold
B4: H183/L072 VL L27bD (antibody, name in Kabat numbering, V domains shown)
VH: B1 VH
VL: B1 VL with L29D, W60F

fold change of affinity: 0.3 fold
B5: H183/L072 VL L27bF (antibody, name in Kabat numbering, V domains shown)
VH: B1 VH
VL: B1 VL with L29F, W60F

fold change of affinity: 0 fold
B6: H183/L072 VL H34L (antibody, name in Kabat numbering, V domains shown)
VH: B1 VH
VL: B1 VL with H39L, W60F

fold change of affinity: 0 fold
B10: H183/L072 VL K50S (antibody, name in Kabat numbering, V domains shown)
VH: B1 VH
VL: B1 VL with K55S, W60F

fold change of affinity: 0.4 fold
B18: H183/L072 VL H34T (antibody, name in Kabat numbering, V domains shown)
VH: B1 VH
VL: B1 VL with H39T, W60F

fold change of affinity: 0 fold
B20: H183/L072 VL K50H (antibody, name in Kabat numbering, V domains shown)
VH: B1 VH
VL: B1 VL with K55H, W60F

fold change of affinity: 0.7 fold
B21: H183/L072 VL L27bA (antibody, name in Kabat numbering, V domains shown)
VH: B1 VH
VL: B1 VL with L29A, W60F

fold change of affinity: 0.2 fold
B25: H183/L072 VL H34N (antibody, name in Kabat numbering, V domains shown)
VH: B1 VH
VL: B1 VL with H39N, W60F

fold change of affinity: 0.4 fold
B26: H183/L072 VL H34K (antibody, name in Kabat numbering, V domains shown)
VH: B1 VH
VL: B1 VL with H39K, W60F

fold change of affinity: 0 fold
B30: H183/L072 VL K50E (antibody, name in Kabat numbering, V domains shown)
VH: B1 VH
VL: B1 VL with K55E, W60F

fold change of affinity: 0.5 fold
B31: H183/L072 VL H34S (antibody, name in Kabat numbering, V domains shown)
VH: B1 VH
VL: B1 VL with H39S, W60F

fold change of affinity: 0 fold
B34: H183/L072 VL L27bE (antibody, name in Kabat numbering, V domains shown)
VH: B1 VH
VL: B1 VL with L29E, W60F

fold change of affinity: 0 fold
B37: H183/L072 VL H34Q (antibody, name in Kabat numbering, V domains shown)
VH: B1 VH
VL: B1 VL with H39Q, W60F

fold change of affinity: 0 fold
B38: H183/L072 VL K50T (antibody, name in Kabat numbering, V domains shown)
VH: B1 VH
VL: B1 VL with K55T, W60F

fold change of affinity: 0 fold
B39: H183/L072 VL K50D (antibody, name in Kabat numbering, V domains shown)
VH: B1 VH
VL: B1 VL with K55D, W60F

fold change of affinity: 0 fold
B43: H183/L072 VL L27bH (antibody, name in Kabat numbering, V domains shown)
VH: B1 VH
VL: B1 VL with L29H, W60F
